From patent CN114395037A (SHENZHEN PEOPLE HOSPITAL, dated 2022) come the findings set out here.

This assay addresses T1, CRT N+P结构域 (CALR N+P) (UniProt P27797 18-308).
T1 construct: range 18-308; The ELISA and SPR sections say only 'CRT蛋白' or '纯化抗原蛋白'; also called CRT蛋白; 钙网蛋白; not shown: His tag (Ni purification, anti-His WB)
T1 sequence (looked up): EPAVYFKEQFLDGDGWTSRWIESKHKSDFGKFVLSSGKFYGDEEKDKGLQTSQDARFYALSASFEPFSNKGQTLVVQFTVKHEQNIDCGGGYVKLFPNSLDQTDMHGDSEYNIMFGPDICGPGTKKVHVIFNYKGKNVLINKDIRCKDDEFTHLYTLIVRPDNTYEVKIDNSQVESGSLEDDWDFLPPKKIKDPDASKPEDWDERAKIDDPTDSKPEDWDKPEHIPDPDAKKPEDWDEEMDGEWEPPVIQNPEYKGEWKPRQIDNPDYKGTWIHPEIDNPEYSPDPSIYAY
Briefly: SPR (Biacore), antigen protein immobilised on the chip, nanobody as analyte. Background: Surface plasmon resonance follows binding to a sensor surface in real time, without labels.

B1: 204纳米抗体 (VHH)
VHH: AVQLVESGGGLVQAGGSLRLSCVASGRPFSLYAVGWFRQAPGKAREFVAAISRSGSTTDHADSVKGRFTVSRDNDANTVSLLMSNLKPEDTAIYYCAAARSTRGYDYWGQGTQVTVSS
notes: Alpaca-derived nanobody from a naive phage display library, expressed in E. coli with an HA tag; not shown: fused HA tag (and a tag for Ni purification, vector PET-14B)
Regarding B1, the Kd – broadly, a measure of binding affinity in units of concentration – worked out at 0.53 nM.
